Reference: article PMC6300008

Assay: LDH release into supernatant, 24 h
Settings: glycan lost; control: WT-transfected BV2 cells plus LPS, co-cultured with neurons

B1: CD200R1 (CD200 receptor 1): N44Q (protein)
parent chain: MFCFWRTSALAVLLIWGVFVAGSSCTDKNQTTQNNSSSPLTQVNTTVSVQIGTKALLCCFSIPLTKAVLITWIIKLRGLPSCTIAYKVDTKTNETSCLGRNITWASTPDHSPELQISAVTLQHEGTYTCETVTPEGNFEKNYDLQVLVPPEVTYFPEKNRSAVCEAMAGKPAAQISWSPDGDCVTTSESHSNGTVTVRSTCHWEQNNVSDVSCIVSHLTGNQSLSIELSRGGNQSLRPYIPYIIPSIIILIIIGCICLLKISGFRKCKLPKLEATSAIEEDEMQPYASYTEKSNPLYDTVTKVEAFPVSQGEVNGTDCLTLSAIGI
**Q.** Which “other: neuronal death in co-culture” value does the source give for B1 here?
**A.** increases
